Laboratory results reported in PMC12296736.
Like-named read-outs stand apart in the source and are kept apart here.

T1: His-nOsBZR4 (His-OsBZR4) (Oryza sativa (rice), UniProt Q6EUF1 1-108)
T1 sequence: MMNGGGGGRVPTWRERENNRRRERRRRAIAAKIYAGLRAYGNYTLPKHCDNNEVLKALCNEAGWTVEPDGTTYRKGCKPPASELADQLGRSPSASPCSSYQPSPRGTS


Key:
His-nOsBZR4 (His-OsBZR4) [1] = molecular target: T1, His-nOsBZR4 (His-OsBZR4); test: EMSA
His-nOsBZR4 (His-OsBZR4) [2] = molecular target: T1, His-nOsBZR4 (His-OsBZR4); test: EMSA; remark: listed apart in the source

Row | Binder | binding result (His-nOsBZR4 (His-OsBZR4) [1]) | binding result (His-nOsBZR4 (His-OsBZR4) [2])
1 | YUC4-EMSA (dsDNA) DNA 1: CGACCGAGCATATGCTCCGTGTTGGTGTATATATACTCGT DNA 2: ACGAGTATATATACACCAACACGGAGCATATGCTCGGTCG | binds | 
2 | YUC11-EMSA (dsDNA) DNA 1: TTCCGTATAAATAGCATGTGCTCTCCGA DNA 2: TCGGAGAGCACATGCTATTTATACGGAA |  | binds
